Experimental findings from patent US7442375B2, “Compositions of beta-defensin inducing agents” (Case Western Reserve University, priority 2002, dated 2008) are described below.

For one test, the system named is MT4 cellular membrane. Description: Immunogold transmission electron microscopy. Type of test: binding, human. As to conditions: 20 μg/ml, 37° C., 1 h; anti-hBD antibody and 10-nm gold IgG. As to the method: (a) CXCR4 tropic HXB2 and CCR5 tropic 97ZA003 HIV-1 strains were incubated with 20 μg/ml hBD-1, -2, or -3 in 10 mM PB for 1 h. Virions were pelleted, washed extensively with PBS and used to infect GHOST X4/R5 cells. RT activity was measured 48 h post-infection. The final two columns represent an additional 20 μg/ml of hBD-2 or -3 during infection. (b) Immunoelectron microscopy analysis showing the interaction of hBD-2 and -3 with HIV-1 and with MT4 cell membrane. X4 HIV-1 HXB2 strain and MT4 cells were incubated with hBD-2 or -3 (20 μg/ml), 37° C., 1 h. Polyclonal anti-hBD-2 or -3 antibodies were added, followed by addition of secondary IgG conjugated with 10-nm gold particles. Arrows indicate hBD-2 and -3 localization to virions and cell membrane.
MT4 cells in RPMI, or X4 strain B-HXB2 viral particles in 10 mM phosphate buffer (PB), were incubated with 20 μg/ml hBD-2 and -3 at 37° C. for 1 h. Cells and virions were centrifuged (15 min, 1200 rpm for cells; 30 min, 35 000 3 g for virus) and washed twice with PBS to remove unbound hBD. Cells and virions were mixed and fixed with 4% paraformaldehyde/0.5% glutaraldehyde, dehydrated, embedded in LR WHITE resin (London Resin Company Ltd, Berkshire, UK), and labeled after embedding as described [Briquet et al.]. […]

A further test deals with CEM X4/R5 cells. The experiment in a line: Confocal microscopy, localisation of hBD on CEM X4/R5 cells. Type of test: cell-based, human. The conditions noted are these: live cells incubated with hBD, then anti-hBD antibodies. Here is the method:
CEM X4/R5 cells were grown in RPMI-1640 medium containing 5% FBS and 400 μg/ml G418. Cells were collected, washed twice with PBS, resuspended in RPMI with 0.5% FBS or supplemented with 20 μg/ml recombinant hBD-2 or -3, and incubated at 37° C., 5% CO2 for 3 h. A second aliquot of cells, after incubation with hBD, was treated with FACS/Perm (PharMingen) at room temperature for 10 min and then washed three times with PBS. A third aliquot of cells was fixed in 1% paraformaldehyde on ice for 30 min, washed three times with PBS, and then incubated with 20 μg/ml hBD-2 or -3. Cells were stained with PE-labeled CXCR4 or CCR5 (PharMingen), or with primary goat anti-hBD-2 antibodies (Cell Sciences, Norwood, Mass., USA), or with rabbit anti-hBD-3 antibodies (Orbingen, San Diego, Calif., USA) at room temperature for 90 min, followed by washing three times with PBS. Fluorescein isothiocyanate-labeled rabbit anti-goat IgG (Jackson ImmunoResearch, West Grove, Pa., USA) for detection of hBD-2, or goat anti-rabbit IgG (Sigma) for detection of hBD-3, were added, respectively, at room temperature and incubated for 90 min. […] All samples were observed using a dual scanning confocal microscope system (Zeiss LSM 510, Oberkochem, Germany) and analyzed with the Zeiss LSM 5 Image Browser. […]

B1: hBD-3: Recombinant human β-defensin 3 produced using an hBD-3-His tag fusion construct cloned into pET-30c; exemplary sequence SEQ ID NO:15 (protein, listed as Homo sapiens)
chain: MRIHYLLFALLFLFLVPVPGHGGIINTLQKYYCRVRGGRCAVLSCLPKEEQIGKCSTRGRKCCRRKK
modifications: not fully specified (C-terminus); ends and bridges not checked
B1: the “gold particles bound to MT4 cellular membrane” value in the test with MT4 cellular membrane was “bound both to virions and to the MT4 cellular membrane”. Moreover, in the test with CEM X4/R5 cells, the “detection of peptide on the cell surface” value is listed as “failed to detect”.
